In publication PMC12240809:

Molecular target: V5–FoTO1 (Taxus media)
Assay: co-IP; lysate of N. benthamiana leaves co-expressing both proteins; anti-V5 antibody on protein G magnetic beads, blot with anti-HA-HRP; lysates incubated 15 min with no compound, 45 μM taxadiene or a mock terpene (caryophyllene); extraction buffer 50 mM Tris pH 7.5, 150 mM NaCl, 0.6% NP-40, 0.6% CHAPS, 1 mM β-mercaptoethanol

Chain of T5αH–HA (Q6WG30 whole entry): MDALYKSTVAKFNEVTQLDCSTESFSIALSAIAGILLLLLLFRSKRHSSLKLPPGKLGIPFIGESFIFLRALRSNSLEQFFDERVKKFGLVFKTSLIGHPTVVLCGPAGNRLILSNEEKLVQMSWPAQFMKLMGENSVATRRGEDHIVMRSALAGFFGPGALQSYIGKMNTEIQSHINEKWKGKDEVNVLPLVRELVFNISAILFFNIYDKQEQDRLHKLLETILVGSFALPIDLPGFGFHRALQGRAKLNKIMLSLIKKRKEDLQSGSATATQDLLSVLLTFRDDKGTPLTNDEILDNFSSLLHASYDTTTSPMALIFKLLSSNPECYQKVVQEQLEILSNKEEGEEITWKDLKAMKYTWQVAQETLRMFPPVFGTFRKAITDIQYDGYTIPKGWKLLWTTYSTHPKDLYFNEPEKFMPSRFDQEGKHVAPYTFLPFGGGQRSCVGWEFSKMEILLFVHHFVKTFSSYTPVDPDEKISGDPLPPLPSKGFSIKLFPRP

fold increase of the co-IP signal with 45 μM taxadiene: 4 fold
Substance: T5αH–HA (from UniProt Q6WG30 1-499) (enzyme)
